# From patent US20250304687A1 (LTZ THERAPEUTICS, published 2025)
# T1: human CD79b recombinant protein (human, UniProt P40259 29-159, limits assumed)
# T1 construct: Coated on ELISA plates at 1 ug/ml
# T1 sequence (looked up): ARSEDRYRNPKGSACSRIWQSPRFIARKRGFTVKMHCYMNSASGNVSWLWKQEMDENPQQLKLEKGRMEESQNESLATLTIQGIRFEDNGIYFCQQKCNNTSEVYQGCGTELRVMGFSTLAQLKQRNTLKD
# B1: Pola/msnCD3 (bispecific antibody, human IgG1, kappa, N297G)
# light: DIQLTQSPSSLSASVGDRVTITCKASQSVDYEGDSFLNWYQQKPGKAPKLLIYAASNLESGVPSRFSGSGSGTDFTLTISSLQPEDFATYYCQQSNEDPLTFGQGTKVEIKRTVAAPSVFIFPPSDEQLKSGTASVVCLLNNFYPREAKVQWKVDNALQSGNSQESVTEQDSKDSTYSLSSTLTLSKADYEKHKVYACEVTHQGLSSPVTKSFNRGEC
# heavy: EVQLVESGGGLVQPGGSLRLSCAASGYTFSSYWIEWVRQAPGKGLEWIGEILPGGGDTNYNEIFKGRATFSADTSKNTAYLQMNSLRAEDTAVYYCTRRVPIRLDYWGQGTLVTVSSASTKGPSVFPLAPSSKSTSGGTAALGCLVKDYFPEPVTVSWSSGALTSGVHTFPAVLQSSGLYSLSSVVTVPSSSLGTQTYICNVNHKPSNTKVDKKVEPKSCDKTHTCPPCPAPELLGGPSVFLFPPKPKDTLMISRTPEVTCVVVDVSHEDPEVKFNWYVDGVEVHNAKTKPREEQYGSTYRVVSVLTVLHQDWLNGKEYKCKVSNKALPAPIEKTISKAKGQPREPQVYTLPPSRDELTKNQVSLSCAVKGFYPSDIAVEWESNGQPENNYKTTPPVLDSDGSFFLVSKLTVDKSRWQQGNVFSCSVMHEALHNRFTQKSLSLSPGK
# chain: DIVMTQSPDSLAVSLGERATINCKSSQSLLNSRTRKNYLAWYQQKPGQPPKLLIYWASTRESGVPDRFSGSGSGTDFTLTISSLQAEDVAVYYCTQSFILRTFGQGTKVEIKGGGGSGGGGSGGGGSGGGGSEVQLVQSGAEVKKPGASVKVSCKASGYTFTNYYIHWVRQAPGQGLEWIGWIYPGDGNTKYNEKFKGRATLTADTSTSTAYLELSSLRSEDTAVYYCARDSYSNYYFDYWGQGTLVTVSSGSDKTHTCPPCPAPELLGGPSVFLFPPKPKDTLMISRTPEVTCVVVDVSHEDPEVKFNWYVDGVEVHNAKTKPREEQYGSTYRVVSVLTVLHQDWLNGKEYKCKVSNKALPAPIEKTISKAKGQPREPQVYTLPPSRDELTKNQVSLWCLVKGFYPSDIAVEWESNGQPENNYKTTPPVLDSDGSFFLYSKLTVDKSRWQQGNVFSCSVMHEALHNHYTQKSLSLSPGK
# notes: also called CD79b/CD3 bispecific antibody Pola/msnCD3
# B2: 23D8/TRX4 (bispecific antibody, human IgG1, kappa, N297G)
# light: AYDMTQTPASVEVAVGGTVTIKCQASQSISDNLSWYQQKPGQPPKLLIYDASDLASGVPSRFSGSGSGTEFTLTISDLEPADAATYYCQQDWISSNVDNTFGGGTEVVVKRTVAAPSVFIFPPSDEQLKSGTASVVCLLNNFYPREAKVQWKVDNALQSGNSQESVTEQDSKDSTYSLSSTLTLSKADYEKHKVYACEVTHQGLSSPVTKSFNRGEC
# heavy: QSLEESGGGLVTPGGTLTLTCTVSGLSLSSNAINWVRQAPGKGLEWIGMIYSGGRIEYASWAKGRFTISKTSTTVDLKITSPTTEDTATYFCAKGMSPSAHSSDIWGPGTLVTVSASTKGPSVFPLAPSSKSTSGGTAALGCLVKDYFPEPVTVSWSSGALTSGVHTFPAVLQSSGLYSLSSVVTVPSSSLGTQTYICNVNHKPSNTKVDKKVEPKSCDKTHTCPPCPAPELLGGPSVFLFPPKPKDTLMISRTPEVTCVVVDVSHEDPEVKFNWYVDGVEVHNAKTKPREEQYGSTYRVVSVLTVLHQDWLNGKEYKCKVSNKALPAPIEKTISKAKGQPREPQVYTLPPSRDELTKNQVSLSCAVKGFYPSDIAVEWESNGQPENNYKTTPPVLDSDGSFFLVSKLTVDKSRWQQGNVFSCSVMHEALHNRFTQKSLSLSPGK
# chain: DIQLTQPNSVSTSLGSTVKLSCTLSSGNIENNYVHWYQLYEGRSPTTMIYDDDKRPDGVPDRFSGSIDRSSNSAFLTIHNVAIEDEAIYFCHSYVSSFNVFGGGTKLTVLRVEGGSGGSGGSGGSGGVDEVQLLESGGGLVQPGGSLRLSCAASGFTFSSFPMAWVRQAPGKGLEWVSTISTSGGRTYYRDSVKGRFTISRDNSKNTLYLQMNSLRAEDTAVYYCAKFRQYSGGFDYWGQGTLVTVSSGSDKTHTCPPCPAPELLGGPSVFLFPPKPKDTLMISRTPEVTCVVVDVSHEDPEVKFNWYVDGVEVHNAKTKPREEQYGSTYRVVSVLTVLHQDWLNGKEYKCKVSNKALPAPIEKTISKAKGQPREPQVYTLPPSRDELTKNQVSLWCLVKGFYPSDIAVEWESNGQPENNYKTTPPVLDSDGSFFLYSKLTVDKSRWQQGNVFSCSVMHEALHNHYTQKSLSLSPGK
# notes: Knob-into-hole format: anti-CD79b Fab arm (rabbit 23D8 variable regions on human IgG1/kappa) and anti-CD3 TRX4 (otelixizumab) scFv-Fc
# B3: 23D8/msnCD3 (bispecific antibody, human IgG1, kappa, N297G)
# light: B2 light
# heavy: B2 heavy
# chain: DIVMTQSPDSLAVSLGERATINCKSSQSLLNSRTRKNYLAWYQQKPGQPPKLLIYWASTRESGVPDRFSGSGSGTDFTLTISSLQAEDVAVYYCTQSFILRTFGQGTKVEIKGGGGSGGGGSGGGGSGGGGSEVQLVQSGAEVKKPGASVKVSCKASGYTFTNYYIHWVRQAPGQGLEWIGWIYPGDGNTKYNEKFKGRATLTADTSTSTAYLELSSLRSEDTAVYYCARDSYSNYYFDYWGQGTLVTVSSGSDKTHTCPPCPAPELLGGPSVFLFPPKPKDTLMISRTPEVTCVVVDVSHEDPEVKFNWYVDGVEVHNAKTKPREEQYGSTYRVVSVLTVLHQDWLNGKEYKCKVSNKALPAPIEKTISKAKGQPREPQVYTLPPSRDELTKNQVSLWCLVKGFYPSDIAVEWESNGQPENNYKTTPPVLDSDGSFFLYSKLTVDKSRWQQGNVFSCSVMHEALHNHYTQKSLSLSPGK
# notes: also called CD79b/CD3 bispecific antibody 23D8/msnCD3
# B4: 23D8/38E4 (bispecific antibody, human IgG1, kappa, N297G)
# light: B2 light
# heavy: B2 heavy
# chain: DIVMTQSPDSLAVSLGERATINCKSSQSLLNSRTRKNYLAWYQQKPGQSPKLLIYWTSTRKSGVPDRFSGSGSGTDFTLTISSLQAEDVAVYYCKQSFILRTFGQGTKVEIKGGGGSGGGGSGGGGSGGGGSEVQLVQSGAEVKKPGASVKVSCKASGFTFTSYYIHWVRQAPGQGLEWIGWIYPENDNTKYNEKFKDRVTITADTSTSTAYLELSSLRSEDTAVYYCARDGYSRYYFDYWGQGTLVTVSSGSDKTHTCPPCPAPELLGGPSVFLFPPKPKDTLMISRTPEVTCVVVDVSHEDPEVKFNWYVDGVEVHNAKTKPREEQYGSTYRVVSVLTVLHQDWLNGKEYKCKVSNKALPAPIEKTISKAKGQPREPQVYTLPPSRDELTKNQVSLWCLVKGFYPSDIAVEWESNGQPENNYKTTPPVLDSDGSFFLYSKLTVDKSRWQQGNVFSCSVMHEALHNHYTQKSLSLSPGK
# notes: Knob-into-hole format: anti-CD79b 23D8 Fab arm and anti-CD3 38E4 scFv-Fc; also called CD79b/CD3 bispecific antibody 23D8/38E4
# Target: T1, human CD79b recombinant protein
# Experiment: ELISA, coated human CD79b recombinant protein
# Protocol: The binding affinities of CD79b/CD3 bispecific antibodies to human CD79b recombinant protein were tested by ELISA. 1 μg/ml (in PBS buffer) of human CD79b recombinant protein was coated on ELISA plates overnight. ELISA plates were washed and blocked with blocking buffer (PBS+1% BSA) and then incubated with serial dilutions of primary CD79b/CD3 bispecific antibodies.
row,Binder,binding result
1,B1,binds
2,B2,binds
3,B3,binds
4,B4,binds
